Reference: publication PMC7110113, “Termination of non‐coding transcription in yeast relies on both an RNA Pol II CTD interaction domain and a CTD‐mimicking region in Sen1” (The EMBO Journal, 2020)
Ends that are not written are not given here. FAM = 5,6-carboxyfluorescein

Assays:
Test in all cases: fluorescence polarisation; fluorescence anisotropy, equilibrium binding of Nrd1 CID variants to FAM-labelled NIM peptides; 10°C, 50 mM Na2HPO4, 100 mM NaCl, pH 8; 1:1 model with non-specific binding (DynaFit)
Conditions in all cases: both partners purified
Nrd1 CID R133G = molecular target: T1, Nrd1 CID R133G (S. cerevisiae, UniProt P53617 1-153, R133G)
T1 construct: the construct for anisotropy is made as described previously (Kubicek et al, 2012); also called CID(R133G)-His6; source: recombinant, produced and purified as described previously (Kubicek et al, 2012); plasmid made with QuikChange, T7 promoter
T1 sequence (looked up): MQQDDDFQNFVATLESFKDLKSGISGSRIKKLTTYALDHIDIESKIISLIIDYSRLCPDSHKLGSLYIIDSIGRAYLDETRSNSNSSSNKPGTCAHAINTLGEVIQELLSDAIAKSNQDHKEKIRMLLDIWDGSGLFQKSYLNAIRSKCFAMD

Nrd1 CID R28D = molecular target: T2, Nrd1 CID R28D (S. cerevisiae, UniProt P53617 1-153, R28D)
T2 construct: the construct for anisotropy is made as described previously (Kubicek et al, 2012); also called CID(R28D)-His6; source: recombinant, produced and purified as described previously (Kubicek et al, 2012); plasmid with T7 promoter
T2 sequence (looked up): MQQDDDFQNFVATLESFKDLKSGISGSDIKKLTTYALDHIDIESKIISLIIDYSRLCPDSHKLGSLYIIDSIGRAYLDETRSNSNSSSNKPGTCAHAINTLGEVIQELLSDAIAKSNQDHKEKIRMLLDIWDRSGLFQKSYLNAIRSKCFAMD

Nrd1 CID M126A = molecular target: T3, Nrd1 CID M126A (S. cerevisiae, UniProt P53617 1-153, M126A)
T3 construct: source: recombinant, produced and purified as described previously (Kubicek et al, 2012)
T3 sequence (looked up): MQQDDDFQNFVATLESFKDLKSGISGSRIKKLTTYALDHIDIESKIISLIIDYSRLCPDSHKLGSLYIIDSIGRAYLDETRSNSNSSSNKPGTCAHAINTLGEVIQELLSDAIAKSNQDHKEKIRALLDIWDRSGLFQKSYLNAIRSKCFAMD

Nrd1 CID I130K = molecular target: T4, Nrd1 CID I130K (S. cerevisiae, UniProt P53617 1-153, I130K)
T4 construct: the construct for anisotropy is made as described previously (Kubicek et al, 2012); also called CID(I130K)-His6; source: recombinant, produced and purified as described previously (Kubicek et al, 2012); plasmid with T7 promoter
T4 sequence (looked up): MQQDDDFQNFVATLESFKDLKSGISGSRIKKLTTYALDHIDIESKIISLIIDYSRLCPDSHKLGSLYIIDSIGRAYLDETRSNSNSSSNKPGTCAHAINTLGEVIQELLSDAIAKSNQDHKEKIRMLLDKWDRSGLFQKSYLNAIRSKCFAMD

Nrd1 CID L20D = molecular target: T5, Nrd1 CID L20D (S. cerevisiae, UniProt P53617 1-153, L20D)
T5 construct: the construct for anisotropy is made as described previously (Kubicek et al, 2012); also called CID(L20D)-His6; source: recombinant, produced and purified as described previously (Kubicek et al, 2012); plasmid with T7 promoter
T5 sequence (looked up): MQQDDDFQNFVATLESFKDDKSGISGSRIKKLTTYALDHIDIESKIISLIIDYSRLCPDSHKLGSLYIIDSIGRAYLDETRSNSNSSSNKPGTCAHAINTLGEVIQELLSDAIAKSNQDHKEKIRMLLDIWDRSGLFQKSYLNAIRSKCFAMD

Nrd1 CID R133A = molecular target: T6, Nrd1 CID R133A (S. cerevisiae, UniProt P53617 1-153, R133A)
T6 construct: the construct for anisotropy is made as described previously (Kubicek et al, 2012); also called CID(R133A)-His6; source: recombinant, produced and purified as described previously (Kubicek et al, 2012); plasmid with T7 promoter
T6 sequence (looked up): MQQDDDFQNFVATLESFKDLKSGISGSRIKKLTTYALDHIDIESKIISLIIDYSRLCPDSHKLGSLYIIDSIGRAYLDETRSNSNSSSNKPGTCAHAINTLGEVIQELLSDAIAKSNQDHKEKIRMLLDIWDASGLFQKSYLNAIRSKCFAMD

Nrd1 CID K21D = molecular target: T7, Nrd1 CID K21D (S. cerevisiae, UniProt P53617 1-153, K21D)
T7 construct: the construct for anisotropy is made as described previously (Kubicek et al, 2012); also called CID(K21D)-His6; source: recombinant, produced and purified as described previously (Kubicek et al, 2012); plasmid with T7 promoter
T7 sequence (looked up): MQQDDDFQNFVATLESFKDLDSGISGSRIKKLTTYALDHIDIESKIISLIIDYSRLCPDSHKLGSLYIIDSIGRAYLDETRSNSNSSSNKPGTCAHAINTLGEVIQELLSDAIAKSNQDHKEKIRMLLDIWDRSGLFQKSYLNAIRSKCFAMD

- Kd (Nrd1 CID R133G): 1.6 ± 0.04 µM
- Kd (Nrd1 CID R28D): 78.2 ± 11.5 µM
- Kd (Nrd1 CID M126A): 1.4 ± 0.07 µM
- Kd (Nrd1 CID I130K): 36.7 ± 4.6 µM
- Kd (Nrd1 CID L20D): 16.9 ± 1.5 µM
- Kd (Nrd1 CID R133A): 1.8 ± 0.08 µM
- Kd (Nrd1 CID K21D): 8 ± 0.8 µM
B1: Sen1 NIM peptide (Sen1 aa 2,052-2,063) (peptide, UniProt Q00416 2052-2063, looked up)
peptide: {FAM}-DDDEDDYTPSIS
notes: Sen1, S. cerevisiae, fragment harbouring aa 2,052-2,063; source: synthetic peptide
